For test [1], the target named is Cav3.1 channel (α3.1 subunit). The test can be described thus: cell-based or functional assay.
For test [2], the target named is Cav1.2 channel (α1.2 subunit, with β2a). Briefly: cell-based or functional assay.

B1: γ4 TM1a peptide (peptide)
peptide: LTTAGAFA
Regarding B1, the “inhibition of Cav3.1 current at 30 µM peptide” value (shortened to “inhibition of Cav3.1 current”) in test [1] was -3.5%. In addition, in test [2], the “inhibition of Cav1.2 current at 30 µM peptide” value (from here on “inhibition of Cav1.2 current”) was -2.5%.

B2: γ6 TM1b A50L peptide (peptide)
peptide: VGLTLAVL
Turning to B2, the “inhibition of Cav3.1 current” value in test [1] was 15.8%.

B3: γ1 TM1a peptide (peptide)
peptide: VTLFFILA
As to B3, the “inhibition of Cav1.2 current” value in test [2] was determined as 15.5%.

B4: γ1 TM1a T12GI16A peptide (peptide)
peptide: VGLFFALA
On to B4, for which, in test [2], the “inhibition of Cav1.2 current” value is 27.5%.

B5: γ6 TM1a L41FL43F peptide (peptide)
peptide: FGFLVAIV
In the case of B5, the “inhibition of Cav3.1 current” value in test [1] turned out to be 20.6%.

B6: γ6 TM1a V45FI47F peptide (peptide)
peptide: LGLLFAFV
For B6, the “inhibition of Cav3.1 current” value in test [1] stood at 26.3%.

B7: γ6 TM1b peptide (peptide)
peptide: VGATLAVL
For B7, the “inhibition of Cav3.1 current” value in test [1] came to 5.5%. Also, in test [2], the “inhibition of Cav1.2 current” value came to 6.7%.

B8: γ6 TM1a SCR peptide (peptide)
peptide: LLILAVGV
On to B8, for which the “inhibition of Cav1.2 current” value in test [2] turned out to be 3.2%.

B9: γ6 TM1a G42T peptide (peptide)
peptide: LTLLVAIV
As for B9, the “inhibition of Cav3.1 current” value in test [1] was 16.4%.

The values above are taken from patent US20090325887A1 (BOARD OF TRUSTEES OF THE UNIVERSITY OF ILLINOIS, published 2009).
